# According to US20220033501A1 (SHANGHAI PHARMAEXPLORER, published 2022):
# T1: human TIM-3 on CHOK1 stable cell line (CHOK1-hTIM-3) (human, UniProt Q8TDQ0 22-301)
# T1 sequence: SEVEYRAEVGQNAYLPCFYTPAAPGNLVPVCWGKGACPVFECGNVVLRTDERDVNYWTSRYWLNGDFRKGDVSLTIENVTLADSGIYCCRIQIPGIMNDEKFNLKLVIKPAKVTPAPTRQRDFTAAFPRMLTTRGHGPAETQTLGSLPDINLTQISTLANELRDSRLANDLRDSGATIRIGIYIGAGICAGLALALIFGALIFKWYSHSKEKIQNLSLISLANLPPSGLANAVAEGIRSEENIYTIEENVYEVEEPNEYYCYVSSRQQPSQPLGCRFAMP
# T2: human TIM-3 extracellular domain protein with hFc tag (hTIM-3-hFc) (human, UniProt Q8TDQ0 22-200)
# T2 construct: not shown: human IgG Fc fragment (hFc) of the pCpC vector
# T2 sequence: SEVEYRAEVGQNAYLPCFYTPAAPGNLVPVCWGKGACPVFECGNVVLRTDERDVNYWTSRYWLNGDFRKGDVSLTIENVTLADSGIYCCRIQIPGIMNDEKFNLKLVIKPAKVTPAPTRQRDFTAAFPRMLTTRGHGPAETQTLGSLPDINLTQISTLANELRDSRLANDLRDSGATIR
# Legend:
# [1] = molecular target: T1, human TIM-3 on CHOK1 stable cell line …; assay: FACS, CHOK1-hTIM-3 cells, 0.013 nM antibody
# [2] = molecular target: T1, human TIM-3 on CHOK1 stable cell line …; assay: FACS, CHOK1-hTIM-3 cells, 0 nM antibody
# [3] = molecular target: T2, human TIM-3 extracellular domain …; assay: ELISA, coated human TIM-3 ECD protein, 0 nM antibody
# [4] = molecular target: T1, human TIM-3 on CHOK1 stable cell line …; assay: FACS, CHOK1-hTIM-3 cells, 40 nM antibody
Mean fluorescence intensity [1],Mean fluorescence intensity [2],OD450 [3],Mean fluorescence intensity [4],Binder
11.6,2.8,0.07,257,"18D2H2 fully human TIM-3 antibody (human IgG4, kappa) (antibody, V domains shown) VH: EVQLVESGGDLVQPGGSLRLSCAASGFTFSTYWMTWVRQAPGRGLEWVANIKQDGSAKYYVDSVKGRFTLSRDDAKNSLYLQMNSLRAEDTAVYYCARGSNWFDYWGQGTLVTVSS VL: ETVMTQSPATLSVSPGERATLSCRANQNVYSNLAWYQQKPGQAPRLLIYDASTRATGFPARFSGSGSGTEFTLTISSLQSEDFAVYYCQQYNNWPLTFGGGTKVEIK"
9.2,2.8,0.08,264,"39E5H1 fully human TIM-3 antibody (human IgG4, kappa) (antibody, V domains shown) VH: EVQLVESGGGLVQPGGSLRLSCAASGFTFSSYWMSWVRQAPGKGLEWVANIKRGGSERYYVDSVKGRFTISGDNAKNSVYLQMNSLRAEDTAVYYCARGSNWFDPWGQGTLVTVSS VL: ETVMTQSPAILSVSPGERATLSCRASQSVYSNLAWYQQKLGQAPRLLIYDASTRATGIPARFSGSGSGTEFTLTISSLQSEDFAVYYCQQYNNWPITFGQGTRLEIK"
9.2,2.9,0.09,221,"34B6D8 fully human TIM-3 antibody (human IgG4, kappa) (antibody, V domains shown) VH: EVQLVESGGGLVQPGGSLRLSCAASGFTFSTYWMTWVRQAPGKRLEWVANIKQGGGDKYYVDSVKGRFTISTDNAKNSLYLQMNSLRAEDTAVYYCARGSNWFDPWGQGTLVTVSS VL: EIVMTQSPATLSMSPGERATLSCRASQSVYDNLAWYQQKPGQAPRLLIYGASTRATGIPARFSGSGSGTEFTLTISSLQSEDFALYYCQQYTHWPITFGQGTRLEIK"
